From patent US20210206841A1 (RESEARCH INSTITUTE AT NATIONWIDE CHILDREN S HOSPITAL, published 2021)

T1: native IHFNTHI (integration host factor of nontypeable Haemophilus influenzae) (nontypeable Haemophilus influenzae …, UniProt P43723 1-96; P43724 1-94)
T1 construct: also called NTHI IHF
T1 sequence 1: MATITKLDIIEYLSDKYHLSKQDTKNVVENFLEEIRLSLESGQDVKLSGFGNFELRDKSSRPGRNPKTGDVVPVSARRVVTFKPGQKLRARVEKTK
T1 sequence 2: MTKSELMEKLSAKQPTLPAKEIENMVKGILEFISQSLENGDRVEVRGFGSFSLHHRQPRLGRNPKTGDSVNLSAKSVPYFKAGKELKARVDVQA

T2: tip-chimeric peptide IhfA5-mIhfB4NTHI (nontypeable Haemophilus influenzae …)
T2 construct: also called IHF(NTHI) tip chimeric peptide; IHFNTHI tip chimeric peptide
T2 peptide: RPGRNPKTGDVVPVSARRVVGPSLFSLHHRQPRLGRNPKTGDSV

T3: tail-chimeric peptide IhfA3-IhfB2NTHI (nontypeable Haemophilus influenzae …)
T3 construct: also called IHF(NTHI) tail chimeric peptide; IHFNTHI tail chimeric peptide
T3 peptide: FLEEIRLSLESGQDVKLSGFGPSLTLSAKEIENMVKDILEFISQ


Columns and labels:
[1] = molecular target: T1, native IHFNTHI (integration host factor …); assay: SPR Biacore 3000, IHFNTHI immobilized, HuMab as analyte
[2] = molecular target: T2, tip-chimeric peptide IhfA5-mIhfB4NTHI; assay: SPR Biacore 3000, peptide immobilized, HuMab as analyte
[3] = molecular target: T1, native IHFNTHI (integration host factor …); assay: SPR Biacore 3000, HuMab immobilized, IHFNTHI as analyte
[4] = molecular target: T2, tip-chimeric peptide IhfA5-mIhfB4NTHI; assay: SPR Biacore 3000, HuMab immobilized, peptide as analyte
[5] = molecular target: T2, tip-chimeric peptide IhfA5-mIhfB4NTHI; assay: direct ELISA #2, peptide coated (curves reaching equilibrium)
[6] = molecular target: T2, tip-chimeric peptide IhfA5-mIhfB4NTHI; assay: direct ELISA #1, peptide coated (curves not reaching equilibrium)
[7] = molecular target: T2, tip-chimeric peptide IhfA5-mIhfB4NTHI; assay: direct binding ELISA: tip chimeric peptide coated at 2 ug/mL, antibody titrated 1:3 in 8 points, anti-human IgG Fc-HRP, absorbance at 450 nm [panel B]
[8] = molecular target: T3, tail-chimeric peptide IhfA3-IhfB2NTHI; assay: SPR Biacore 3000, peptide immobilized, HuMab as analyte
[9] = molecular target: T1, native IHFNTHI (integration host factor …); assay: SPR Biacore 3000, HuMab immobilized, IHFNTHI as analyte; remark: listed apart in the source
[10] = molecular target: T3, tail-chimeric peptide IhfA3-IhfB2NTHI; assay: SPR Biacore 3000, HuMab immobilized, peptide as analyte
[11] = molecular target: T3, tail-chimeric peptide IhfA3-IhfB2NTHI; assay: direct ELISA #2, peptide coated (curves reaching equilibrium)
[12] = molecular target: T3, tail-chimeric peptide IhfA3-IhfB2NTHI; assay: direct ELISA #1, peptide coated (curves not reaching equilibrium)

Binder | Kd [8] [nM] | koff [8] [s⁻¹] | kon [8] [M⁻¹ s⁻¹] | Kd [9] [nM] | koff [9] [s⁻¹] | kon [9] [M⁻¹ s⁻¹] | Kd [10] [nM] | koff [10] [s⁻¹] | kon [10] [M⁻¹ s⁻¹] | EC50 [11] [µg/mL] | EC50 [12] [µg/mL] | also measured
humanized anti-tip monoclonal antibody, heavy chain SEQ ID NO: 3 and light chain SEQ ID NO: 8 (antibody, V domains shown, also called H10212 (1F8.F1 Humanized HC3) + L10211 (1F8.F1 Humanized LC2)) VH: EVKLVQSGAEVKKPGASVKVSCKASGFTFRTYAMSWVRQAPGQRLEWVATIGSDRRHTYYPDKFQGRVTITRDNAKNTLYMELSSLRSEDTAVYYCVGPYDGYYGEFDYWGQGTLVTVSS VL: DVVMTQSPLSLPVTLGQPASISCRSSQSLLDSDGKTFLNWLQQRPGQSPRRLIYLVSKRDSGVPDRFSGSGSGTDFTLKISRVEAEDVGVYYCWQGTHFPYTFGQGTKLEIKR | – | – | – | – | – | – | – | – | – | – | – | Kd [1]: 115 nM; koff [1]: 0.00021 s⁻¹; kon [1]: 1800 M⁻¹ s⁻¹; Kd [2]: 7 nM; koff [2]: 0.00035 s⁻¹; kon [2]: 51000 M⁻¹ s⁻¹; Kd [3]: 245 nM; koff [3]: 0.0018 s⁻¹; kon [3]: 7500 M⁻¹ s⁻¹; Kd [4]: 20 nM; koff [4]: 0.0019 s⁻¹; kon [4]: 95000 M⁻¹ s⁻¹; EC50 [5]: 0.0934 µg/mL; EC50 [6]: 0.066 µg/mL; EC50 [7]: 0.086 µg/mL
humanized anti-tail monoclonal antibody, heavy chain SEQ ID NO: 5 and light chain SEQ ID NO: 12 (antibody, V domains shown, also called H10214 (11E7.C7 Humanized HC2) + L10215 (11E7.C7 Humanized LC3)) VH: EVQLVESGGGLVKPGGSLRLSCAASGFTFSRYGMSWVRQAPGKGLEWVSTISSGGSYTYYTDSVKGRFTISRDNAKNSLYLQMNSLRAEDTAVYYCERHGGDGYWYFDVWGQGTMVTVSS VL: DIVMTQSPATLSLSPGERATLSCRASQDISNYLNWYQQKPGQAVRLLIYYTSRLHSGIPARFSGSGSGTDYTLTISSLEPEDFAVYFCQQGNPLRTFGGGTKVEIKR | 9.1 | 0.00077 | 85000 | 39 | 0.0012 | 33000 | 23 | 0.00044 | 20000 | 0.0429 | 0.015 | –
humanized anti-tail monoclonal antibody, heavy chain SEQ ID NO: 6 and light chain SEQ ID NO: 12 (antibody, V domains shown, also called H10215 (11E7.C7 Humanized HC3) + L10215 (11E7.C7 Humanized LC3)) VH: EVQLVESGGGLVQPGRSLRLSCTASGFTFSRYGMSWVRQAPGKGLEWVATISSGGSYTYYTDSVKGRFTISRDNAKNILYLQMNSLKTEDTAVYYCERHGGDGYWYFDVWGQGTMVTVSS VL: DIVMTQSPATLSLSPGERATLSCRASQDISNYLNWYQQKPGQAVRLLIYYTSRLHSGIPARFSGSGSGTDYTLTISSLEPEDFAVYFCQQGNPLRTFGGGTKVEIKR | 2.4 | 0.0006 | 250000 | ~143 | 0.0011 | 7700 | 13 | 0.0021 | 160000 | 0.0294 | 0.008 | –
